Test results: patent publication US12291562B2, “Reagents and assays using modified integrin domains” (Rush University Medical Center, priority 2019, dated 2025)

Key:
[1] = Phage ELISA on blocked well; type: binding; settings: Table 5, scFv phage diluted 1:5
Procedure: (§1) After 2 rounds of enrichment against the primary target, positive binders were identified by phage ELISA and analyzed by restriction mapping & sequencing for identification of unique clones. Small scale phage growths were diluted 1:5 in TBS+casein. Nunc Maxi-Sorp strip wells were coated at ˜5 μg/ml of each test protein overnight at 4° C. and blocked with TBS+casein. The diluted phage were applied and allowed to bind for 1 hour with shaking. The wells were washed 4 times with TBS+0.05% Tween20 and twice with TBS. Bound phage were detected by incubation for 1 hour with anti-M13-HRP and after washing as above, developed with TMB. Absorbance at 450 nm was read after acidification of the wells.

[2] = tested on: CD11b A-domain polypeptides; assay: Conformation selectivity in counterscreen and dilution series ELISA; type: binding, human; settings: conclusion from ELISA data
Procedure: as §1
High binding clones were included in a counterscreen ELISA against other CD11b A-domain polypetides which produced the following data:
To confirm binding, a dilution series experiment was carried out. Select clones were subjected to a dilution series which generated the following data: […]

[3] = biological target: T1, BZ348014 (CD11b A-domain CD11bA-D242A/F275S/F302G) (Homo sapiens, UniProt P11215, D258A/F291S/F318G); assay: Phage ELISA on BZ348014; type: binding; settings: Table 5; scFv phage diluted 1:5; after 2 rounds of enrichment
T1 construct: MGS-8XHis-SG (N); TEV site (ENLYFQ) followed by GS linker (N); made in house; host or cells: E. coli BL21DE3 (pET-11d)
T1 sequence (P11215 148-337 D258A/F291S/F318G): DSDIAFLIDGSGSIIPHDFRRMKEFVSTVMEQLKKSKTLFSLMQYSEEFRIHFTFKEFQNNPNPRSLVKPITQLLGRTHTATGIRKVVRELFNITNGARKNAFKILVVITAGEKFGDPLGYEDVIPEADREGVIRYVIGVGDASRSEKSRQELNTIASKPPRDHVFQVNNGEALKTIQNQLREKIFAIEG
Description: A naïve human scFv phage display library and VHH phage display library were screened against several integrin targets of interest. The screen involved phage ELISA followed by sequencing.
Example experiment: A diverse naïve human scFv phage display library (Neoclone, LLC, Madison, WI) was enriched on BZ348014.
as §1

BZ348014 antigen = biological target: T2, BZ348014 antigen (Homo sapiens, UniProt P11215, D258A/F291S/F318G); assay: VHH phage display library screening; type: binding
T2 construct: MGS-8XHis-SG (N); TEV site (ENLYFQ) followed by GS linker (N); made in house; host or cells: E. coli BL21DE3 (pET-11d)
T2 sequence (P11215 148-337 D258A/F291S/F318G): as above
Procedure: A panning and enrichment of the BZ348014 antigen against a VHH phage display library (Neoclone, LLC, Madison, WI) was also conducted in an identical manner to the human scFv phage display library screen. One unique binder was identified, clone 8.

B1: Clone 5: scFv phage clone, VL-Linker-VH, SEQ ID NO: 63 (protein)
scFv: SSELTQDPAVSVALGQTVRITCQGDSLRSYYASWYQQKPGQAPVLVIYGKNNRPSGIPDRFSGSTSGNFASLTITGAQAEDGADYYCHSRDSSGNHLVFGGGTKLTVLGEGKSSGSGSESKASEVQLVQSGAEVKKPGESLKISCKGSGYSFTSYWIGWVRQMPGKGLEWMGIIYPGDSDTRYSPSFQGQVTISADKSISTAYLQWSSLKASDTAMYYCARRARGAFDIWGQGTLVTVSS
modifications: Clone 5
[1]
  ELISA absorbance at 450 nM, Blocked well: 0.045
[2]
  Selectivity of binding to CD11b A-domain polypeptides mutationally stabilized in active conformation over the other conformations: limited or no selectivity

B2: Clone 11: scFv phage clone, VH-linker-VK, SEQ ID NO: 65 (protein)
scFv: EVQLVESGGGVVQPGRSLRLSCAATGFTFSNYGIHWVRQAPGKGLEWVAVTSYDGSNKYYADSVKGRFTISRDNSKNTLYLQMNSLRVEDTAVYYCAKDRGYYTYVFDYWGRGTLVTVSSGEGKSSGSGSESKASDVVMTQTPLSLPVTPGEPAAISCRSSQSLLHSNGYNYLDWYLQKPGQSPQLLIYLGSNRASGVPDRFSGSGSGTDFTLKISRVEAEDVGVYYCMQAVQTVD
modifications: Clone 11
[3]
  ELISA absorbance at 450 nM, BZ348014: 0.628
[1]
  ELISA absorbance at 450 nM, Blocked well: 0.043

B3: Clone 14: scFv phage clone, VK-Linker-VH, SEQ ID NO: 67 (protein)
scFv: DVVMTQSPLSLPATLGQPASISCRSSQSLVYTDGNTYLNWFQQRPGQSPRRLIYKVSNRDSGVPDRFSGSGSGTHFTLKISRVEAEDVGVYYCMQGTHWPPTFGQGTKVEIKEGKSSGSGSESKASEVQLVQSGAEVKKPGASVKVSCKASGGTFSSYAISWVRQAPGQGLEWMGGIIPIFGTANYAQKFQGRVTITADESTSTAYMELSSLRSEDTAVYYCASSGVDYWGQGTLVTVSS
modifications: Clone 14
[1]
  ELISA absorbance at 450 nM, Blocked well: 0.044
[2]
  Selectivity of binding to CD11b A-domain polypeptides mutationally stabilized in active conformation over the other conformations: bound selectively

B4: Clone 13: phage clone, VH only, SEQ ID NO: 66 (antibody, V domains shown)
VH: EVQLLESGGGLVQPGGSLRLSCAASGFTFSSDLMSWVRQAPGKGLEWVSAISGSGGSTYYADSVKGRFTISRDNSKNTLYLQMNSLRAEDTAVYYCAKNEVIFDYWGQGTLVTVSSASTKGLSMFDYWGQGTKVEIK
modifications: Clone 13
[1]
  ELISA absorbance at 450 nM, Blocked well: 0.043
[2]
  Selectivity of binding to CD11b A-domain polypeptides mutationally stabilized in active conformation over the other conformations: bound selectively

B5: Clone 6: scFv phage clone, VL-linker-VH, SEQ ID NO: 64 (protein)
scFv: QSVLTQPPSASGTPGQRVTISCSGSSSNIGSNYVSWYQQLPGTAPKLLIYDNNKRPSGIPDRFSGSKSGTSATLGITGLQTGDEADYYCGTWDSSLSALYVFGAGTKLTVLGEGKSSGSGSESKASQVQLQESGPGLVKPSETLSLTCSVSGGSTSSYYWSWIRQPPGKGLEWIGYISNSGSTNYNPSLKSRVTMSIDTSNNQFSLKLSSVTAADTAVYYCASHLGATWRWGQGTLVTVSS
modifications: Clone 6
[1]
  ELISA absorbance at 450 nM, Blocked well: 0.041
[2]
  Selectivity of binding to CD11b A-domain polypeptides mutationally stabilized in active conformation over the other conformations: bound selectively

B6: Clone 8: clone from naïve human scFv phage display library enriched on BZ348014 (Table 5); not the VHH clone 8 (protein)
scFv: DVQLVESGGGLVQPGGSLRLSCTASGFTFSNYAMNWVRQAPGKGLEWVSVISSSGSRRNYADSVKGRFTISRDNAKSTLYLQMNSLKPEDTAVYYCAKVRDAGYYRWNLNDLDYRGQGTQVTVSS
modifications: Clone 8
[3]
  ELISA absorbance at 450 nM, BZ348014: 0.060
[1]
  ELISA absorbance at 450 nM, Blocked well: 0.047
BZ348014 antigen
  Binder identified by panning and enrichment against BZ348014 antigen: unique binder
